The nature of data set [1]: Trehalose phosphorylase activity assay (specific activity, influence of temperature and pH). Format: biochemical. The procedure:
(§1) The present trehalose phosphorylase activity is assayed as follows: Add 0.2 ml of an enzyme solution to 2 ml of 20 mM phosphate buffer (pH 7.0) containing 1.0 w/v % trehalose as a substrate, incubate the solution at 60° C. for 30 min, sample the reaction mixture in an amount of 0.5 ml, and incubate the sample at 100° C. for 10 min to suspend the enzymatic reaction. Add 0.5 ml of D-glucose oxidase/peroxidase reagent to the heated sample, stir the mixture, keep the mixture at 40° C. for 30 min, add 2.5 ml of 5-N hydrochloric acid, stir the resulting mixture, and measure the absorbance of the mixture at a wavelength of 525 nm. One unit of the enzyme activity is defined as the enzyme that forms one […] of D-glucose per one minute. The activity of maltose- and kojibiose-phosphorylases can be assayed similarly as the same assay as indicated above except that the trehalose as a substrate is respectively replaced with maltose and kojibiose.
The yield of the purified enzyme specimen, obtained by the above purification steps, was about 25% with respect to the enzyme activity of the supernatant of the disrupted cell suspension. […] Protein was quantified according to the Lowry method using calf serum albumin as a standard protein.
Influences of temperatures and pHs on the present trehalose phosphorylase activity were studied in accordance with the assay for enzyme activity. […] In both cases, the enzymatic reactions were suspended similarly as in the enzyme assay, followed by quantifying the formed glucose. […] The thermal stability of the enzyme was determined by incubating the enzyme dissolved in 10 mM phosphate buffer (pH 7.0) at a temperature of about 40-85° C. for one hour, cooling the incubated enzyme, and assaying for the residual enzyme activity according to the enzyme assay. The pH stability of the enzyme was determined by dissolving the enzyme in buffers with different pHs of about 4-10, keeping each enzyme solution at 4° C. for 24 hours, adjusting each solution to give a pH of 7.0, and assaying for the residual enzyme activity according to the enzyme assay. […]

Data set [2] in a line: Thermal and pH stability of trehalose phosphorylase (residual enzyme activity). In kind it is physicochemical. The method, then:
as §1, with “The activity of maltose- and kojibiose-phosphorylases can be assayed similarly as the same assay as indicated above except that the trehalose as a substrate is respectively replaced with maltose and kojibiose.” left out
Influences of temperatures and pHs on the present trehalose phosphorylase activity were studied in accordance with the assay for enzyme activity. […] In both cases, the enzymatic reactions were suspended similarly as in the enzyme assay, followed by quantifying the formed glucose. […] The thermal stability of the enzyme was determined by incubating the enzyme dissolved in 10 mM phosphate buffer (pH 7.0) at a temperature of about 40-85° C. for one hour, cooling the incubated enzyme, and assaying for the residual enzyme activity according to the enzyme assay. […]

Data set [3] can be described thus: Isoelectric point by polyacrylamide gel electrophoresis using ampholyte. As to conditions: electrophoresis using 2 w/v % ampholyte. In kind it is physicochemical.

B1: trehalose phosphorylase: novel thermostable trehalose phosphorylase purified from Thermoanaerobium brockii, ATCC 35047; amino acid sequence of SEQ ID NO:4 (protein)
chain: ANKTKKPIYPFEDWVIRETQFSIDTNYRNETIFTLANGYIGMRGTFEERYSGPKNTSFNGTYINGFYEIHDIVYPEGGYGFAKIGQTMLNVADSKIIKLYVDGEEFDLLQGKILFYERVLDMKKGFVERKVKWESPTGKILEVKIKRIVSLNRQHLAAISFTMQPVNFTGKIRFVSAIDGNVSNINDSEDVRVGSNLKGKVLKTIDKSVEGLKGWIVQKTQKSNFSYACAIDNVLVADSKYEVSNSLEEDGVKVIVDLEAEKGTSYTLNKFISYYTSKDFDENKLVALALEEIEKAKNDGFETIEKEQEEFLNSFWKDADVIIEGDKALQQGIRFNEFHLLQSVGRDGKTNIAAKGLTGGGYEGHYFWDSDIYIMPFFLYTKPEIAKALVMYRYNLLDAARSRAKELGHKGALYPWRTIDGPECSAYFPAGTAQYHINADIVYALKRYVEATNDVDFLYDYGCEILFETARFWEDLGAYIPLKGNKFCINCVTGPDEYTALVDNNAYTNYMAKMNLEYAYDIANKMKKEVPQKYQKVASKLNLKDEEIVAWKKAADNMYLPYSKELDIIPQDDSFLYKERITVDEIPEDQFPLLLHWHYLNIYRYQICKQPDVLLLMFLQREKFTKDELKKNYDYYEPITTHDSSLSPAIFSILANEIGYTDKAYKYFMMTARMDLDDYNDNVKDGIHAASMAGTWSAVVNGFGGMRVYTNELHFEPRLPKEWNLLSFNVRYKGRKINVKLTKENVVFALLEGEPIEIYYFDKKILLEKGEIK
Regarding B1, the “Optimum pH” value in data set [1] (incubated at 60° C. for 30 min) is on record as 7.0-7.5. Besides, in data set [1] (incubated at pH 7.0 for 30 min), the Optimum temperature entry was “about 70 °C”. The Specific activity in data set [1] (purified enzyme specimen, trehalose substrate, 60° C., pH 7.0) is on record as 78.2 units/mg protein. Further, the Thermal stability entry in data set [2] (10 mM phosphate buffer pH 7.0, one hour) was “up to 60 °C”. Moreover, the pH stability in data set [2] (4° C. for 24 hours) is 6.0-9.0. Further, the “Isoelectric point (pI)” value in data set [3] turned out to be 5.4±0.5.

Source of the values: patent US5993889A, “Trehalose phosphorylase, its preparation and use” (Kabushiki Kaisha Hayashibara Seibutsu Kagaku Kenkyujo, priority 1996, dated 1999).
